Data published in paper PMC6586375.

Biological target: His-tagged BspC labelled with the Monolith His-Tag Labeling Kit RED-tris-NTA 2nd Generation (Streptococcus agalactiae)
Experiment: MST; labelled His-tagged BspC constant at 10 nM, vimentin titrated 1:1 in 16 steps from 20 μM to 0 μM; standard capillaries, Monolith NT.115 Pico, 20% excitation power, 40% MST power; three independent experiments

Q: Which Kd does the source give for “vimentin purchased from Novus Biologicals (from UniProt P08670 1-466) (natural protein)” here?
A: Its Kd is 3.39 µM.
